Series [1] in a line: Thermostability (Tm, Tonset, Tagg) by Nanotemper DSF. Type of series: physicochemical. Also on record: key to Tm2 / Tagg / Tm1 / Tm / Tm3 / Tonset / Tonset ø (mean) / Tagg ø (mean): temperatures in °C. Conditions: for Tm: single melting point; for Tm1: first melting point; for Tm2: second melting point; for Tm3: third melting point. The procedure: Isolated VHH clones were further validated by performing an ELISA assay as described in Example 1. Metrics of thermostability including melting temperature (Tm), onset temperature (Tonset), and temperature of aggregation (Tagg), were also tested with increasing temperature in the range of 20° C.-95° C. at the speed of 1° C./min. These measurements were performed using a Nanotemper DSF. When applicable, Tm1 refers to the first melting point observed, Tm2 refers to the second melting point observed, etc., Sequence information for the VHH clones and the binding assay results are summarized in Table 3. The individual binding curves are shown for each candidate in FIGS. 3B-3I.
Isolated VHH clones were further validated by performing an ELISA assay as described in Example 1. Metrics of thermostability including melting temperature (Tm), onset temperature (Tonset), and temperature of aggregation (Tagg), were also tested with increasing temperature in the range of 20° C.-95° C. at the speed of 1° C./min. The individual binding curves are shown for each candidate in FIGS. 5B-5H.
Isolated VHH clones were further validated by performing an ELISA assay as described in Example 1. Metrics of thermostability including melting temperature (Tm), onset temperature (Tonset), and temperature of aggregation (Tagg), were also tested with increasing temperature in the range of 20° C.-95° C. at the speed of 1° C./min. The individual binding curves are shown for each candidate in FIGS. 7B-7P.
The detailed thermostability graphs used to determine the Tm, Tonset, and Tagg are illustrated in FIGS. 19A-19I and raw data is summarized in Table 23. Any subsequent melting points observed (Tm1, Tm2, Tm3, etc.) are separated by commas.

The target of series [2] is T1, recombinant His-tagged Can f2 (dog (Canis familiaris), UniProt O18874 19-180).
T1 construct: also called Can f2-His; recombinant Can f2; not shown: His tag
T1 sequence (looked up): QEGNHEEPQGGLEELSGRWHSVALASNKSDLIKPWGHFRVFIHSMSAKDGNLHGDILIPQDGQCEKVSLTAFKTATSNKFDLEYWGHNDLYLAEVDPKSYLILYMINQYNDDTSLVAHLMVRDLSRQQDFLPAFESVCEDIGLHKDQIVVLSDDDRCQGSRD
Nature of the series: ELISA, antigen coated. The procedure:
(§1) 2 microgram per milliliter (μg/mL) target antigen is coated in a 96-well plate and ELISA assay is performed after incubation with candidate VHHs. The binding EC50 of each clone is calculated using Prism GraphPad. The positive control antibody is involved as an internal control.
Isolated VHH clones were further validated by performing an ELISA assay as described in Example 1. Metrics of thermostability including melting temperature (Tₘ), onset temperature (Tₒₙₛₑₜ), and temperature of aggregation (Tagg), were also tested with increasing temperature in the range of 20° C.-95° C. at the speed of 1° C./min. The individual binding curves are shown for each candidate in FIGS. 7B-7P.

In series [3] the target is T2, recombinant His-tagged Der p1 (dust mite, UniProt P08176 99-320, limits assumed).
T2 construct: Recombinant His-tagged protein made by the applicant; also called Der p1-His; Der pl; not shown: His tag
T2 sequence (looked up): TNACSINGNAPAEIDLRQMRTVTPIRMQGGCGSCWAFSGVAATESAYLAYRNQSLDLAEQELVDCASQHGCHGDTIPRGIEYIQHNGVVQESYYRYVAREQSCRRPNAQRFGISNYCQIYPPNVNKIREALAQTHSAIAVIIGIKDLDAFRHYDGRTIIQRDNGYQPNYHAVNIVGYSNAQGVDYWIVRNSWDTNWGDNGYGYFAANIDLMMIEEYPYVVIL
Nature of the series: ELISA, antigen coated on plate. How it is done:
as §1
Isolated VHH clones were further validated by performing an ELISA assay as described in Example 1. The individual binding curves are shown for each candidate in FIGS. 9A-9K.

[4] abbreviates: Average of two replicates, anti-Fel d1 VHH.
Setting [5] is: anti-Can f2 VHH, 20° C.-95° C. at 1° C./min.
Setting [6] is: anti-Can f2 VHH, in °C (unit assumed).

Where a chain is given by its changes, count along the chain named.

B1: DAB22110-1-1-C3 (protein)
VHH: QLQLVESGGGLVQPGGSLRLSCEASGFTFKYYTMSWYRQAPGKERELVATITNGDRTNYADSVKGRFTISRDNAKNTLYLQMNSLKPYDTAVYYCNRHLPLLQIWGQGTQVTVSS
On to B1, for which, in series [1] (setting [4]), the “Tagg ø (mean)” value is 58.93 and the “Tonset ø (mean)” value is reported as 58.06. In series [1] (Average of two replicates, anti-Fel d1 VHH, in °C (unit assumed)), the “Tm ø (mean), first melting point (Tm1)” value amounted to 66.50. In series [1] (Replicate 1), this molecule registered a Tagg of 59.02 and a Tonset of 58.17. In addition, the “Tm, first melting point (Tm1)” value in series [1] (Replicate 1, in °C (unit assumed)) is listed as 66.50. In series [1] (Replicate 2), this molecule displayed a Tagg of 58.85 and a Tonset of 57.94. Further, the “Tm, first melting point (Tm1)” value in series [1] (Replicate 2, in °C (unit assumed)) turned out to be 66.51.

B2: SDAB22118-2-G01 (VHH)
VHH: AVQLVDSGGGLVQAGDSLRLSCVASGRTFSSYVMGWFRQAPGKERLIVATISKSGSLTHYADSVEGRFTISRDNAKNTVYLQMNSLEPEDTAVYYCTPVSDLTGRRLGSYWGQGTQVTVSS
notes: anti-Can f2 alpaca VHH; prokaryotic expression
As to B2, the EC50 in series [2] was 0.0736 µg/mL. Besides, in series [1] (setting [5]), the Tagg was 38.93. Further, the Tm in series [1] (setting [6]) is listed as 43.71.

B3: SDAB22118-189-192-1-E09 (VHH)
VHH: EVQLVESGGGLVQPGGSLRLSCAASGTIFLINRMGWYRQAPGKQRELVATSFTSGNSTMYADSVKGRFTISRDNAKKTVYLQMNSLKPEDTAVYYCKARISRRYGNWDDYWGQGTQVTVSS
notes: as for B2
Consider B3, for which, in series [2], the EC50 was determined as 0.0571 µg/mL.

B4: SDAB22129-55-35-46-49-1-A04 (VHH)
VHH: QLQLVESGGGLVQPGGSLRLSCAASGRVYNSWTMAWFRQAPGKEREFVGAFSLLDSGTRYADSLKDRVAISRDDAANTQWLQLSALKPEDTAVYYCAAKSGTIRATSEGQYNYWGQGIQVTVSS
notes: Expressed from a prokaryotic vector
For B4, the concentration for a half-maximal effect (EC50) in series [3] was determined as 3.41 µg/mL.

B5: SDAB22118-1-B11 (VHH)
VHH: AVQLVESGGGLVQPGGSLRLSCAASGFTFSNYYMSWYRQAPGKEREWVAFITSTGSSTNYANSVKGRFTASRDNAKNTVYLQMNSLKPEDTAVYYCKTRLWGNDYWGKGTLVTVSS
notes: as for B2
Take B5: the EC50 in series [2] is 0.164 µg/mL. Besides, the Tagg in series [1] (setting [5]) was 44.54. Moreover, the Tm in series [1] (setting [6]) is given as 55.17.

B6: SDAB22118-3-G05 (VHH)
VHH: AVQLVESGGGLVQAGGSLRLSCAASGRTFNNSVMGWFRQAPGKEREFVAAISRSGAFAHYAESVEGRFTISRDNAKNTVYLQMNSLKPEDTAVYYCAAGAILLPTERRYDYWGQGTQVTVSS
notes: as for B2
As to B6, the EC50 in series [2] amounted to 0.149 µg/mL.

B7: SDAB22118-1-D05 (VHH)
VHH: B6 VHH with A1Q, R19G, S32Y, A56S, A58T, S63A, E65Q, N77I, L103M, R108T
notes: as for B2
For B7, the EC50 in series [2] worked out at 0.0762 µg/mL. This molecule also returned a Tagg in series [1] (setting [5]) of 39.54. For the same molecule, in series [1] (setting [6]), the Tm1 came to 48.35, the Tm2 is 58.58 and the Tm3 worked out at 64.58.

B8: SDAB22118-1-F04 (VHH)
VHH: QVQLVESGGGLVQPGGSLRLSCAYSGFTLDNNVIGWFRQAPGKEREFVAAISRSGAFTHYTESVQGRFTISRDNAKNTVYLQMNSLKPEDTAVYYCAAGAILLPTERRYDYWGQGTQVTVSS
notes: as for B2
For B8, the EC50 in series [2] came out at 0.0639 µg/mL. This molecule had a Tagg in series [1] (setting [5]) of 48.08. In series [1] (setting [6]), the Tm is recorded as 58.63.

B9: SDAB22129-55-35-46-49-1-D04 (VHH)
VHH: QLQLVESGGGLVQPGGSLRLSCVISGGTFHPYPIGWFREAPGKEREGVLCINSGGQSEISANSAHDPKYADSVKGRFTISRDNAANTVYLQMNNLEPGDTAVYYCAAPREIYVDPYCPTYAYEYWGQGTQVTVSA
With B9, the EC50 in series [3] came out at 0.0621 µg/mL.

B10: SDAB22118-3-B02 (VHH)
VHH: AVQLVDSGGGLVQPGGSLRLSCAASGRTFSYYAMGWFRQALGKEREFVAASSRTGRVTNYADSVKGRFTISRDNAKNTVYLQMNSLKPEDTAIYYCAADDRFYGGDNPAFYNSWGQGTQVTVSS
notes: as for B2
Turning to B10, in series [2], the EC50 was 0.00759 µg/mL.

B11: SDAB22129-55-35-46-49-1-A03 (VHH)
VHH: QVQLVESGGGLVQAGGSLRLSCAVSGRTVSRNVMGWFRQAPGKEREFVAGIGFSGGSTYYADSVKGRFTISRDNAKNTVYLEMNRLQPEDTAVYYCAAPSLPLLTSDLHDYDYWGQGTQVTVSS
notes: as for B4
As to B11, in series [3], the half-maximal effective concentration (EC50) was found to be 0.0291 µg/mL.

B12: SDAB22118-3-F08 (VHH)
VHH: QVQLVESGGGLVQPGESLRLSCAASGSIFSIYRMGWYRQAPGEQREHVATVTSGGGTGYADSVKGRFTIYRDNAKNTVYLQMNSLKPEDTAVYSCYAIPKSWSRTSEYSWGQGTQVTVSS
notes: as for B2
As for B12, the EC50 in series [2] stood at 0.0595 µg/mL.

B13: SDAB22118-189-192-1-E10 (VHH)
VHH: AVQLVDSGGGLVQTGGSLRLSCAASGTIFSINRMAWYRQAPGKQRELVASIFFSGGITHYADFVKGRFTISRDNAKNTMYLQMNSLKPEDTAVYYCKGVIAPNYRRTSNFQDYWGQGTQVTVSS
notes: as for B2
Consider B13, for which, in series [2], the EC50 turned out to be 0.0427 µg/mL.

B14: SDAB22118-3-D01 (VHH)
VHH: QVQLVESGGGLVQAGDSLRLSCAASGRSFSNYVMNWFRQAPGKEREFVAAISRSGRSTFYADSVKGRFTISRDNPKATVYLQMNSLVIEDTAVYFCAAASDITSMRSLAAITSWGQGTQVIVSS
notes: as for B2
As to B14, the EC50 in series [2] was determined as 0.429 µg/mL.

B15: SDAB22118-189-192-1-E08 (VHH)
VHH: AVQLVESGGGLVQPGGSLRLSCVASGSSSRNYAMGWYRQAPGNEREFVAVITSRGYTHYANSVSGRFTISRDHAKDTAYLQMNSLKPEDTAVYYCNTQAGLLPFMTVYDWGTGTQVTVSS
notes: as for B2
B15: the EC50 in series [2] came out at 0.00411 µg/mL.

B16: SDAB22118-1-D08 (VHH)
VHH: EVQLVESGGGLVQPGGSLRLSCVVSGSIFSDNAMGWYRQAPGKQREMVAIISSVGTTNNVDSVNGRFTISRDNAKNTVYLQMNSLKPEDTAVYYCKDFSAPRYWGQGTQVTVSS
notes: as for B2
Consider B16, for which, in series [2], the half-maximal effective concentration (EC50) stood at 0.0486 µg/mL. The molecule further registered a Tagg in series [1] (setting [5]) of 40.82. In addition, in series [1] (setting [6]), the Tm1 came to 38.89, the Tm2 is on record as 43.62 and the Tm3 was 54.69.

B17: SDAB22129-55-35-46-49-1-G09 (VHH)
VHH: QVKLEESGGGAVQPGGSLRLSCTASGQTFSNYIISWFRQAPGKEREFVVGISKSGGRTYYADSAKGRFTISRDNAKNTVYLQMSSLKPEDTAVYYCAADGLVLTAAAAEYDYWGQGTQVTVSS
notes: as for B4
For the molecule B17, the EC50 in series [3] turned out to be 0.154 µg/mL.

B18: SDAB22118-189-192-1-C05 (VHH)
VHH: QVQLVESGGGGVQAGGSLRLSCVASQSHFGYNVMGWYRQAPGRQRELVATIISSGGTNYADSVKGRFTISRDNAKNTVHLSMDSLNVEDTAVYFCYAKGVWLGREYWGQGTQVTVSS
notes: as for B2
For the molecule B18, in series [2], the EC50 is 0.0325 µg/mL.

B19: SDAB22118-189-192-1-H03 (VHH)
VHH: EVQLVESGGGLVQARGSLRLSCAASGRTFNNYAMGWFRQAPGKEREFVAAIASNTGTTYYAGSVKGRFAISRDNAKNTVDLHMNSLKPEDTAVYYCALGPLRLGWWYDSRPYDYWGQGTQVTVSS
notes: as for B2
On to B19, for which the concentration giving a half-maximal response (EC50) in series [2] was found to be 0.0575 µg/mL.

B20: SDAB22118-189-192-1-C10 (VHH)
VHH: EVQLVESGGGLVQAGGSLRLSCAASGRTFSEYIMGWFRQAPGKERVFVSTISKSGAITNYADSVQGRFTISRDNAKNTVYLQMNSLKPEDSAVYYCAAGPLLSPAGRQYDYWGQGTQVTVSS
notes: as for B2
As to B20, the EC50 in series [2] was 0.0217 µg/mL.

Values taken from US20240352105A1, “COMPOSITIONS AND METHODS FOR NEUTRALIZING ANTIGENS” (PACAGEN, INC, priority 2023, published 2024).
